Experimental findings from US20240117061A1 (WUHAN YZY BIOPHARMA, published 2024) are described below.

The target in test [1] is T1, recombinant human BCMA-his fusion protein (ACRO Biosystem, Cat. No. BCA-H522y) (human, UniProt Q02223 1-54).
T1 construct: extracellular domain; Bought protein; also called huBCMA-his; hu BCMA-his; not shown: His tag
T1 sequence (looked up): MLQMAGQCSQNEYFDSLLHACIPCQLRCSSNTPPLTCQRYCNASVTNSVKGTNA
As to the kind of experiment: ELISA, coated antigen. The procedure:
Procedures: huBCMA-his and cynoBCMA-his antigens were prepared into 0.5 μg/mL coating solutions with PBS (pH 7.4). The coating solutions were added to a microplate at 100 μL/well and incubated at 4° C. overnight. The residual coating solution was discarded before 3% BSA was added at 300 μL/well, and the plate was blocked for 3 h at room temperature. The microplate was washed once with PB ST at 300 The stock humanized monoclonal antibody solutions were serially 3-fold diluted to the 11th concentration. The dilutions were added to the microplate at 100 μL/well. After a 1-h incubation at room temperature, the microplate was washed thrice with PBST at 300 The HRP-conjugated 6*His, His-Tag antibody was 25,000-fold diluted with 1% BSA-PBST and added at 100 After another 1-h incubation at room temperature, the microplate was washed thrice with PB ST at 300 μL/well and dried. The TMB chromogenic solution was added at 100 μL. After a 5-min reaction at room temperature, 2 M H2504 was added at 100 μL/well to terminate the reaction. The microplate was placed on a microplate reader (Molecular Devices, SPECTRA Max plus 384) and the absorbance OD450 value was read at 450 nm wavelength.
Background: ELISA stands for enzyme-linked immunosorbent assay.

Test [2] addresses T2, human BCMA on cells (NCI-H929, U266B1, HEK293 huBCMA) (human, UniProt Q02223 1-184).
T2 construct: whole, on cells; also called cell surface BCMA antigen
T2 sequence (looked up): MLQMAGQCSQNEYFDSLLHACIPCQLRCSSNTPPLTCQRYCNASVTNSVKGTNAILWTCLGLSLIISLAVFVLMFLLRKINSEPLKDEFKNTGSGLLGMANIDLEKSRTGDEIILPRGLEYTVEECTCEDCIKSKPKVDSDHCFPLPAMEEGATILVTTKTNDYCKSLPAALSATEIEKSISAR
Put plainly: flow cytometry on NCI-H929 cells. The procedure:
(§1) Procedures: The cells were resuspended in PBS, and the cell density was adjusted to 2×10^5 cells/well. Human-mouse chimeric monoclonal antibodies were added to a 96-well plate at 50 μL/well and serially 3-fold diluted from 3000 nM to the 9th concentration. The plate was incubated for 1 h at 4° C. 150 μL of precooled PBS containing 1% of FBS was added into the 96-well plate after the co-incubation with the primary antibody was finished. The mixtures were centrifuged at 300×g for 5 min and the supernatants were discarded. The above procedures were repeated once. The fluorescent secondary antibody PE anti-human IgG Fc (Biolegend, 409304) was added at 80 μL/well. The plate was incubated at 4° C. for 30 min. 150 μL of precooled PBS containing 1% of FBS was added into the 96-well plate after the co-incubation with the secondary antibody was finished. The 96-well plate was centrifuged at 300×g for 5 min and the supernatants were discarded. The above procedures were repeated once. The cells were resuspended in 100 μL of PBS containing 1% of FBS and detected on a flow cytometry (BD Accuri™ C6).
For orientation: A flow cytometer gives signals particle by particle.

The target of test [3] is T2, human BCMA on cells (NCI-H929, U266B1, …). Put plainly: flow cytometry on U266B1 cells. As to the method: as §1
The target of test [4] is T3, recombinant human BCMA-mFc fusion protein (human; mouse).
T3 construct: also called huBCMA-mFc
T3 chain: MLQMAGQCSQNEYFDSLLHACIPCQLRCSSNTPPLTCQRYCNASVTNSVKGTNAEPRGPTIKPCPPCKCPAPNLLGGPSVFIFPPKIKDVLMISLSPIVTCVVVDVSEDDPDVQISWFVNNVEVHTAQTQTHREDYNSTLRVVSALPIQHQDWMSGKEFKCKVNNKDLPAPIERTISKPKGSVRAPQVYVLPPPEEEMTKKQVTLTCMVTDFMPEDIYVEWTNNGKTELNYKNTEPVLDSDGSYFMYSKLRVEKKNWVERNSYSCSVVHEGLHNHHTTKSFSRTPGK
As to the kind of experiment: indirect ELISA, coated antigen. As to the method:
Procedures: Human, mouse and monkey BCMA antigens were prepared into 0.5 μg/mL coating solutions with PBS buffer. The coating solutions were added to a microplate at 100 μL/well and incubated at 4° C. overnight. The residual coating solution was discarded before 3% BSA was added at 300 μL/well, and the plate was blocked for 3 h at room temperature. The microplate was washed once with PB ST (PBS containing 0.1% of TWEEN 20) at 300 μL/well. The human-mouse chimeric monoclonal antibodies were serially 3-fold diluted from 10 μg/mL to the 9th concentration. The dilutions were added to the microplate at 100 μL/well. After a 1-h incubation at room temperature, the microplate was washed thrice with PB ST at 300 μL/well. The mouse anti-human IgG Fc antibody [HRP] mAb was 25,000-fold diluted with 1% BSA-PBST and added at 100 μL/well. After another 1-h incubation at room temperature, the microplate was washed thrice with PBST at 300 μL/well and dried. The TMB chromogenic solution was added at 100 μL/well. After a 5-min reaction at room temperature, 2 M H₂SO₄ was added at 100 μL/well to terminate the reaction. The microplate was placed on a microplate reader (Molecular Devices, SPECTRA Max plus 384) and the absorbance OD450 value was read at 450 nm wavelength.

Test [5] has as its target T2, human BCMA on cells (NCI-H929, U266B1, …). As to the kind of experiment: flow cytometry on NCI-H929 cells. As to the method:
Procedures: Preparation of cell suspensions: The cells were resuspended in PBS, and the cell density was adjusted to 2×10⁵ cells/well. Mouse antibodies were added to a 96-well plate at […] and serially 3-fold diluted from 3000 nM. The plate was incubated for 1 h at 4° C. 150 μL of precooled PBS containing 1% of FBS was added into the 96-well plate after the co-incubation with the primary antibody was finished. The mixtures were centrifuged at 300×g for 5 min and the supernatants were discarded. The above procedures were repeated once. The fluorescent secondary antibody PE […] (Biolegend, 409304) was added at 80 μL/well. The plate was incubated at 4° C. for 30 min. 150 μL of precooled PBS containing 1% of FBS was added into the 96-well plate after the co-incubation with the secondary antibody was finished. The mixtures were uniformly mixed with a pipette. The 96-well plate was centrifuged at 300×g for 5 min in a plate centrifuge and the supernatants were removed. The above procedures were repeated once. The cells were resuspended in 100 μL of PBS containing 1% of FBS and detected on a flow cytometry (BD Accuri™ C6).
This is another data set of the same source.

B1: human-mouse chimeric antibody c-mAb2 (antibody, human IgG1, V domains shown)
VH: QVQLQQSDAELVKPGTSVKISCKVSGYTFTDHTIHWMKQRPEQGLEWIGYIYPRNGNTKYNEKFKGKATLTADKSSSTAYMHLNSLTSEDSAVYFCARYDYDGYFDVWGTGTTVTVSS
VL: DVVMTQTPLSLPVSLGDQASISCRSSQSHVHSDGHTYLHWYLQKPGQSPELLIYKVSNRFSGVPDRFSGSGSGTDFTLKISRVEAEDLGVYFCSQNTHFPWTFGGGTKLEIK
notes: not shown: human IgG1 heavy chain constant region, GenBank No. AK303185.1; human kappa light chain constant region, GenBank No. MG815648.1
For the molecule B1, the 50% effective concentration (EC50) (as a rule, the concentration that produces a half-maximal response) in test [1] was determined as 0.0257 nM; in test [2], 5.7 nM; in test [3], 14.7 nM; in test [4], 0.427 nM; in test [5], 5.7 nM.

B2: human-mouse chimeric antibody c-mAb3 (antibody, human IgG1, V domains shown)
VH: EVQLQQSGPELVKPGASVKILCKASGYTITDYNMDWVKRSHGKSLEWIGNINPHNGGSIYNQKFKGKATLTVDKSSSTAFMELRSLTSEDTAVYYCARGDATLVLDYWGQGTSLTVSS
VL: DIVLTQSPASLAVSLGQRATISCRASKSVSTSGLSYMHWYQQKPGQPPKVLIYLASNLESGVPARFSGSGSGTDFTLNIHPVEEEDAATYYCQHSRELPPTFGAGTKLELK
notes: as for B1
Turning to B2, the EC50 was 0.0155 nM in test [1]; 8.25 nM in test [2]; 81.5 nM in test [3]; 0.794 nM in test [4]; 8.25 nM in test [5].
